In paper PMC12487890:

Tests used:
[1] = target: interferon-induced transmembrane protein 3 (IFITM3), human, untagged (UniProt Q01628); assay: co-immunoprecipitation (anti-HA IP, anti-IFITM3 immunoblot), IFITM3/HA band ratio; conditions: mean of two co-IPs from independent transfections
[2] = target: interferon-induced transmembrane protein 3 (IFITM3), human, untagged (UniProt Q01628); assay: proximity ligation assay (anti-IFITM3 and anti-HA, confocal microscopy); conditions: HEK293T cells transfected with pCMV-IFITM3 (0.50 μg) and pBJ-97ZANef-HA WT or mutant (0.25 μg); mean of 6 to 12 cells per condition; parent: 20,209
[3] = HEK293T cells cotransfected with pCMV-IFITM3 (0.50 μg) and pBJ-97ZA Nef-HA WT or mutant (0.25 μg), parent: 100
[4] = HEK293T cells cotransfected with pCMV-IFITM3 (0.50 μg) and pBJ-97ZANef-HA WT or mutant (0.25 μg)

UniProt Q01628, sequence (Q01628 whole entry): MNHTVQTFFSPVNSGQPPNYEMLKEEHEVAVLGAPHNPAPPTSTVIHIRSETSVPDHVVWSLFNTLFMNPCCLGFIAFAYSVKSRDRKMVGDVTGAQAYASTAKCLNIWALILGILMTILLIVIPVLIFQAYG

Row | Substance | percent of parent [1, 3] | response (corrected total cell fluorescence) [2] | percent of parent [1, 4]
1 | 97ZA013 Nef-HA, wild type (HIV-1 clade C primary isolate) N163T; C164S | 217% |  | 
2 | 97ZA013 Nef-HA, wild type (HIV-1 clade C primary isolate) R192F; R193H | 188% |  | 
3 | 97ZA013 Nef-HA, wild type (HIV-1 clade C primary isolate) R17A; R19A; R21A; R22A |  | 7580 | 16%
4 | 97ZA013 Nef-HA, wild type (HIV-1 clade C primary isolate) M20A |  | 17200 | 124%
5 | 97ZA013 Nef-HA, wild type (HIV-1 clade C primary isolate) G2A |  | 3000 | 1%
6 | 97ZA013 Nef-HA, wild type (HIV-1 clade C primary isolate) E153K | 73% |  | 
7 | 97ZA013 Nef-HA, wild type (HIV-1 clade C primary isolate) L165A; L166A |  | 12000 | 87%
8 | 97ZA013 Nef-HA, wild type (HIV-1 clade C primary isolate) M169V; Q171L | 244% |  | 
9 | 97ZA013 Nef-HA, wild type (HIV-1 clade C primary isolate) S152D; E153K | 42% |  | 
